B1: VAMP7(119–180) (domain or fragment, human, UniProt P51809 119-180, looked up)
chain: ENKGLDKVMETQAQVDELKGIMVRNIDLVAQRGERLELLIDKTENLVDSSVTFKTTSRNLAR
B2: VAMP7(1–118) (domain or fragment, human, UniProt P51809 1-118, looked up)
chain: MAILFAVVARGTTILAKHAWCGGNFLEVTEQILAKIPSENNKLTYSHGNYLFHYICQDRIVYLCITDDDFERSRAFNFLNEIKKRFQTTYGSRAQTALPYAMNSEFSSVLAAQLKHHS

The target in the series “VAMP7(1–118)” is B2. The experiment in a line: NMR titration.
The series “SEC-MALS” deals with the molecule itself. The experiment in a line: SEC-MALS. Background: Size exclusion chromatography separates by hydrodynamic size, large species first.

As for B1, in the series with VAMP7(1–118), the binding result is reported as “binds”.

As for B2, the stoichiometry N (commonly the number of molecules, sites or subunits per partner or assembly) in the series “SEC-MALS” turned out to be 2.

The values are drawn from publication PMC2878558 (The Journal of Biological Chemistry, 2010).
